Tests used:
[1] = molecular target: T1, monomeric RC–His12–LH1–PufX core complex (reaction centre light-harvesting 1-PufX) (Rba. sphaeroides, UniProt P0C0Y7 1-260; P0C0Y8 2-282; P0C0Y9 2-308; P0C0X9 1-58; P0C0Y1 1-49; P13402 1-82); test: PeakForce QNM single-molecule force spectroscopy (AFM); RC–LH1–PufX on the AFM tip, illuminated; pre-reduced cytochrome c2-His6 (and His6-CFP in patterned lines) held on a Ni-NTA SiOx substrate; 10 mM HEPES pH 7.4, 45 mM KCl, room temperature; modulation frequencies 0.5, 1 and 2 kHz; conditions: both partners purified
[2] = molecular target: T1, monomeric RC–His12–LH1–PufX core …; test: single-molecule dynamic force spectroscopy (AFM); RC–LH1–PufX on the AFM tip via His12/Ni-NTA and a PEG12 linker, kept photo-oxidised by white light; pre-reduced cytochrome c2-His6 held on a Ni-NTA SiOx substrate via His6; 10 mM HEPES pH 7.4, 45 mM KCl, room temperature; retract velocity 200–3000 nm s^-1; the paper calls the values apparent; conditions: both partners purified

koff [1]: 198 s⁻¹
koff [2]: 7.5 s⁻¹
B1: cytochrome c2-His6 (natural protein)
chain: QEGDPEAGAKAFNQCQTCHVIVDDSGTTIAGRNAKTGPNLYGVVGRTAGTQADFKGYGEGMKEAGAKGLAWDEEHFVQYVQDPTKFLKEYTGDAKAKGKMTFKLKKEADAHNIWAYLQQVAVRP
notes: cytochrome c2, cloned from Rba. sphaeroides strain 2.4.1; Carries a haem cofactor; pre-reduced with 1 mM sodium dithionite before the measurements; The gene was cloned with its own start; the signal peptide is surmised to be cut in Rba. sphaeroides; also called Cyt c2–His6; cyt c2; source: Rba. sphaeroides ΔcycA strain carrying the gene on pRK415, purified (LDAO-solubilised membrane fraction, …)
